Assay results reported in patent US20250296996A1 (BROADWING BIO, published 2025).

Tests used:
[1] = molecular target: T1, muANGPTL7-his (R&D Systems) (mouse, UniProt Q8R1Q3 22-337, limits assumed); assay: BLI Octet HTX; IgG on AHC sensor; muANGPTL7-his at 200 nM
T1 construct: Bought protein; also called mouse ANGPTL7 protein
T1 sequence (looked up): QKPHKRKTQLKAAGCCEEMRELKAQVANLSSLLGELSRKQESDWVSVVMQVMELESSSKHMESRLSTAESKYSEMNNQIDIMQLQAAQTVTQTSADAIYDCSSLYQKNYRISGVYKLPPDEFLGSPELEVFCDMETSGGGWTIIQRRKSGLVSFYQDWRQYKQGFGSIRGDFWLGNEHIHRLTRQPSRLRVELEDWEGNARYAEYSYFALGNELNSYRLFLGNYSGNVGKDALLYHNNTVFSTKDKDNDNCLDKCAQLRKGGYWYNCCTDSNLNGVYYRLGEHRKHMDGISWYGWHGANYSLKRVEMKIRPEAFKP
Method: (§1) Experiments were also conducted to determine the reactivity and dissociation constants (KD) of anti-ANGPTL7 antibodies with the mouse ANGPTL7 protein. Binding experiments were performed on Octet HTX (ForteBio) in 1×PBS, pH 7.4, 0.1 mg/mi BSA, 0.05% Sodium Azide, and 0.02% Tween 20. Antibodies at a concentration of 50 nM were loaded on pre-hydrated AHC biosensors for 5 mA. The loaded sensors were dipped into monovalent muANGPTL7-his (R&D Systems) at a concentration of 200 nM for 5 min of association, followed by 10 min of dissociation. […] Responses (nm) at the end of association were also determined (Table 5).

[2] = molecular target: T2, P60 (huANGPTL7-Fibrinogen-his) (human, UniProt O43827 129-343); assay: BLI Octet HTX; IgG on AHC sensor; P60 at 200 nM; 1:1 fit
T2 construct: also called human ANGPTL7 fibrinogen domain; not shown: C-terminal short linker and His tag
T2 sequence: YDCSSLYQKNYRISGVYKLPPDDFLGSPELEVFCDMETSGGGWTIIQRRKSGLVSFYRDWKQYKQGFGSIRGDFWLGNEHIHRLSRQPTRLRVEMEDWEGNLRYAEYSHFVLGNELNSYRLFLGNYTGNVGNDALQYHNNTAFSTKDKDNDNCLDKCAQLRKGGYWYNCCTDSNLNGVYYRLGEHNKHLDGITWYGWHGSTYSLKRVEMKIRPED
Method: ANGPTL7 Antibody Kinetics. Experiments were conducted to determine the reactivity and dissociation constants (KD) of anti-ANGPTL7 antibodies with the human fibrinogen domain of the ANGPTL7 protein. Binding experiments were performed on Octet HTX (ForteBio) in 1×PBS, pH 7.4, 0.1 mg/ml BSA, 0.05% Sodium Azide, and 0.02 Tween 20. Antibodies at a concentration of 50 nM were loaded on pre-hydrated AHC biosensors for 5 min. The loaded sensors were dipped into monovalent P60 (huANGPTL7-Fibrinogen-his) at a concentration of 200 nM for 5 min association, followed by 10 min dissociation. […] Responses (nm) at the end of association were also determined (Table 2).

[3] = molecular target: T1, muANGPTL7-his (R&D Systems); assay: BLI Octet HTX; IgG on AHC sensor; muANGPTL7-his at 200 nM; 1:1 fit
Method: as §1

[4] = molecular target: T3, P66 (rabbit ANGPTL7-his) (rabbit, UniProt G1T4P1 27-344); assay: BLI Octet HTX; IgG on AHC sensor; P66 at 200 nM; 1:1 fit
T3 construct: mature; also called rabbit ANGPTL7 protein
T3 sequence: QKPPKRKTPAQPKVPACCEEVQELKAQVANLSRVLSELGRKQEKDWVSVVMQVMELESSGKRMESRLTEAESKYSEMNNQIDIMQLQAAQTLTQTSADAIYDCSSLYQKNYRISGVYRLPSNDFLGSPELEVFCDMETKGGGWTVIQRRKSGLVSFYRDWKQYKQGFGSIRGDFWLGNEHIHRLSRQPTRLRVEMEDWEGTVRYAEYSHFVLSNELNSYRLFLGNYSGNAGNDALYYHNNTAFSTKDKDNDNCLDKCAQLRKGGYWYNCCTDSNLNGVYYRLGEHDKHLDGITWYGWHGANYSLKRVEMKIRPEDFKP
Method: as §1, with “([…])” for “(KD)”, “rabbit” for “mouse”, “Rx PBS,” for “1×PBS,”, “min.” for “mA.”, “P66 (rabbit ANGPTL7-his)” for “muANGPTL7-his (R&D Systems)”, “6).” for “5).”

[5] = molecular target: T4, P62 (huANGPTL7-his) (human, UniProt O43827 27-346); assay: BLI Octet HTX; IgG on AHC sensor; P62 0.343-250 nM; global 1:1 fit (token printed under the kon column)
T4 construct: not shown: C-terminal short linker and His tag
T4 chain: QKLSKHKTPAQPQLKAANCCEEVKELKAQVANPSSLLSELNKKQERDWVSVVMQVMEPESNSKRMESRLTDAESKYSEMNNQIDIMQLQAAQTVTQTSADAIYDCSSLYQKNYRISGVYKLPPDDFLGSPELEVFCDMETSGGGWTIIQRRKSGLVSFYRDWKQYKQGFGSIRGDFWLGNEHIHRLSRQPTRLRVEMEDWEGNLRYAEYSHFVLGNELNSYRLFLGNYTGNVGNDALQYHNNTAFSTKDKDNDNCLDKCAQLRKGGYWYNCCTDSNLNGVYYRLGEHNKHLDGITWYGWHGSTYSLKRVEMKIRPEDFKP
Method: Experiments were also conducted to determine the reactivity and dissociation constants (KD) of anti-ANGPTL7 antibodies with the human ANGPTL7-his protein. Binding experiments were performed on Octet HTX (ForteBio) in 1×PBS, pH 7.4, 0.1 mg/mi BSA, 0.05% Sodium Azide, and 0.02% Tween 20. To measure monovalent binding kinetics, antibodies at a concentration of 50 nM were loaded on pre-hydrated AHC biosensors for 5 min. The loaded sensors were dipped into monovalent P62 (huANGPTL7-his) at a range of concentration from 0.343-250 nM (a serial 3-fold dilution) for 5 min association, followed by 10 min dissociation.

B1: ATX-P-437 (antibody, human IgG1, kappa, N297A, V domains shown)
VH: QITLKESGPTLVKPTQTLTLTCTFSGFSLSTSGVGVGWIRQPPGKALEWLALIYWNDDKQYSPSLKSRLTITKDTSKNQVVLTMTNMDPMDTATYYCAHNPDYGDFFDYWGQGTLVTVSS
VL: not shown
notes: Full chains (VH + hIgG1-Agly-Fc)
In the case of B1, the binding result [1] is reported as “no binding (tested: 200 nM)”, the Kd [2] is reported as 0.658 nM and the Response [2] is reported as 0.6 nm. For the same binder, the Response [3] was 0.02 nm, the Kd [4] was 0.786 nM and the Response [4] was 0.8 nm. B1: binds [5].
